To fix the notation:
B1: TPR 5TU (parent)
chain: GGAUCUUCUCGAUCUAACAAAAAAGACAAAUCUGCCACAAAGCUUGAGAGCAUCUUCGGAUGCAGAGGCGGCAGCCUUCGGUGGCGCGAUAGCGCCAACGUUCUCAACUAUGACACGCAAAACGCGUGCUCCGUUGAAUGGAGUUUAUCAUG

Variants at the floor of the assay were thinned out. A value given as a limit tells only on which side of the number the result lay.

Variants of B1 are the subject of this data set. Briefly: polymerase ribozyme fitness, log enrichment relative to wild type (log ratio); higher = more active; in vitro selection for triplet polymerase activity. A digest of the protocol:
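Fitness measures genotype enrichment against wild-type enrichment on a logarithmic scale, with inverse-variance-weighted averaging of replicates. The logarithm is base 2, and genotypes were kept only with ≥10 input reads and ≥1 read per output in Illumina sequencing. The sequenced libraries came from one triplicate in vitro selection round, including frozen incubation at −7 °C, of PCR-built, transcribed mutant libraries of each subunit of a heterodimeric triplet polymerase ribozyme.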
As to U127C C131A G152U, the “polymerase ribozyme fitness (log ratio)” value was -3.91.

In the case of C8U A28U G58A G74C U127G G133C A142U C149G, the “polymerase ribozyme fitness (log ratio)” value was no more than -4.2.

Turning to A39G C54A A91G G94A, the “polymerase ribozyme fitness (log ratio)” value is no more than -4.2.

As to U4A G65A C85U A97U, the “polymerase ribozyme fitness (log ratio)” value was -2.2.

For the variant A28C U44A G59A C125A G143C, the “polymerase ribozyme fitness (log ratio)” value was no more than -4.2.

With G71A C85U C96A A107G C118A, the “polymerase ribozyme fitness (log ratio)” value is no more than -4.2.

In the case of A3U G11A C14G U53C C76G G117U, the “polymerase ribozyme fitness (log ratio)” value is no more than -4.2.

G86A U90A: the “polymerase ribozyme fitness (log ratio)” value is -3.67.

Turning to C32U C54U, the “polymerase ribozyme fitness (log ratio)” value is -1.22.

For A60C G71A C85A G143C, the “polymerase ribozyme fitness (log ratio)” value was no more than -4.2.

Consider C14G G83U, for which the “polymerase ribozyme fitness (log ratio)” value is -2.05.

Regarding A3G C87U C132G, the “polymerase ribozyme fitness (log ratio)” value is -4.07.

With A28C U61G G67A C69A C93G A113U G124U, the “polymerase ribozyme fitness (log ratio)” value is no more than -4.2.

On to U15G C18U U56C G83A C87U, for which the “polymerase ribozyme fitness (log ratio)” value was -1.58.

For C75U U134A, the “polymerase ribozyme fitness (log ratio)” value was -1.13.

Regarding G94U A97G U127A A150U, the “polymerase ribozyme fitness (log ratio)” value is no more than -4.2.

Take A37G U53A U134G: the “polymerase ribozyme fitness (log ratio)” value is -3.7.

A29U C36U: the “polymerase ribozyme fitness (log ratio)” value was no more than -4.2.

As to U31G G59U C69A U134G G136U, the “polymerase ribozyme fitness (log ratio)” value was -3.84.

Consider U33A C95U A142U G143U, for which the “polymerase ribozyme fitness (log ratio)” value is -4.13.

For C54G U109C C116U C131U A147U, the “polymerase ribozyme fitness (log ratio)” value was -1.86.

Regarding U7G A21G C57G U127G U130G C131U U135G U148A, the “polymerase ribozyme fitness (log ratio)” value is no more than -4.2.

With U53G G92U G143U U144A, the “polymerase ribozyme fitness (log ratio)” value is -3.84.

With A40U A98G, the “polymerase ribozyme fitness (log ratio)” value is -0.242.

Turning to G141A U144C, the “polymerase ribozyme fitness (log ratio)” value was -3.08.

As for A21U C95A U146G, the “polymerase ribozyme fitness (log ratio)” value is -0.389.

In the case of C8U C43U C85U G100A A142U, the “polymerase ribozyme fitness (log ratio)” value is no more than -4.2.

Regarding A20G C27U C35U A49U C76U C125U, the “polymerase ribozyme fitness (log ratio)” value is no more than -4.2.

A17G A40U U55A U56A C103A A119G U134A: the “polymerase ribozyme fitness (log ratio)” value was no more than -4.2.

In the case of A12U C14A C85G U145C, the “polymerase ribozyme fitness (log ratio)” value was -3.7.

As to G83U C99G U145G, the “polymerase ribozyme fitness (log ratio)” value was no more than -4.2.

For A21C G42A C54A C96G U102G, the “polymerase ribozyme fitness (log ratio)” value was no more than -4.2.

Turning to A91C A150G, the “polymerase ribozyme fitness (log ratio)” value was no more than -4.2.

As to C10G A17U A37C G59C C85A, the “polymerase ribozyme fitness (log ratio)” value was no more than -4.2.

For the variant A16C A22U A89U C93U, the “polymerase ribozyme fitness (log ratio)” value was -3.06.

Consider U53A G88C, for which the “polymerase ribozyme fitness (log ratio)” value was no more than -4.2.

Take U13G C96U A97U A137U: the “polymerase ribozyme fitness (log ratio)” value is no more than -4.2.

Turning to C5G A17G C38A A47C A60C U82C C95G C123U G143A A147G, the “polymerase ribozyme fitness (log ratio)” value is no more than -4.2.

As to C57U G70U C79A C93G C105G G143C, the “polymerase ribozyme fitness (log ratio)” value is no more than -4.2.

In the case of C38U C54U C57A G84A C118U, the “polymerase ribozyme fitness (log ratio)” value is -1.06.

With A22U A23G G50A G86A C116G U130G C131G, the “polymerase ribozyme fitness (log ratio)” value is no more than -4.2.

On to U7G U13A A17U A20C G50A A122C G141U U151G, for which the “polymerase ribozyme fitness (log ratio)” value was no more than -4.2.

Turning to C10U U13C A17U C76A C105U, the “polymerase ribozyme fitness (log ratio)” value is no more than -4.2.

Take G48A U61A C105G: the “polymerase ribozyme fitness (log ratio)” value was no more than -4.2.

As for A28G A91C G126A, the “polymerase ribozyme fitness (log ratio)” value was no more than -4.2.

Consider G11A A17G U31A U53G C54U A64G, for which the “polymerase ribozyme fitness (log ratio)” value was no more than -4.2.

With U45G C87U, the “polymerase ribozyme fitness (log ratio)” value was -1.32.

Regarding C96U A113G G136C, the “polymerase ribozyme fitness (log ratio)” value was -3.93.

As for C5G, the “polymerase ribozyme fitness (log ratio)” value is -0.157.

Take C87U C118U G143C: the “polymerase ribozyme fitness (log ratio)” value is -2.54.

C14G A97U A98G: the “polymerase ribozyme fitness (log ratio)” value was -2.74.

On to C32U G46A A60U G83C C96A G141A, for which the “polymerase ribozyme fitness (log ratio)” value was no more than -4.2.

Take A30U C54U C85A G128C G140U G141A: the “polymerase ribozyme fitness (log ratio)” value is no more than -4.2.

Turning to U9A U15A G48C C51G G84A, the “polymerase ribozyme fitness (log ratio)” value was no more than -4.2.

Regarding A12U, the “polymerase ribozyme fitness (log ratio)” value is -0.161.

Consider A40G G94C, for which the “polymerase ribozyme fitness (log ratio)” value is -1.82.

Turning to U61A G94U A106G, the “polymerase ribozyme fitness (log ratio)” value was -2.71.

As for C51U C87G C93G C105G A106C A113G, the “polymerase ribozyme fitness (log ratio)” value was no more than -4.2.

As to A17G C18G U31G G68A C87U G133U, the “polymerase ribozyme fitness (log ratio)” value is no more than -4.2.

As to A16C G92C, the “polymerase ribozyme fitness (log ratio)” value is -1.11.

Consider U44A U53A G58U G83U U102G A122U, for which the “polymerase ribozyme fitness (log ratio)” value was no more than -4.2.

In the case of A47G G84U A106G, the “polymerase ribozyme fitness (log ratio)” value is -2.24.

A19G C32A G46C C54U G59C A106U G128C: the “polymerase ribozyme fitness (log ratio)” value is no more than -4.2.

Consider G133A U134G, for which the “polymerase ribozyme fitness (log ratio)” value is -2.81.

Turning to A49C A66C G81C G83U C99U U101G C108U, the “polymerase ribozyme fitness (log ratio)” value was no more than -4.2.

C54A C85A C105A: the “polymerase ribozyme fitness (log ratio)” value is no more than -4.2.

In the case of A137G U145G, the “polymerase ribozyme fitness (log ratio)” value is -1.02.

In the case of A64C G83C A89U U134A G141A, the “polymerase ribozyme fitness (log ratio)” value is no more than -4.2.

For G50C U61A G62U A142C, the “polymerase ribozyme fitness (log ratio)” value was -2.79.

On to U104C U135G, for which the “polymerase ribozyme fitness (log ratio)” value was -3.31.

As for U9G G74A G84A A107G, the “polymerase ribozyme fitness (log ratio)” value is no more than -4.2.

As to U13A G62A A142G, the “polymerase ribozyme fitness (log ratio)” value was -2.22.

For C35A A66G G70U C87G C96G A121U C149U, the “polymerase ribozyme fitness (log ratio)” value is no more than -4.2.

Regarding A29U C76G G84U C96A A122U U144A, the “polymerase ribozyme fitness (log ratio)” value was no more than -4.2.

As for A28G G34U G80A U102A C108G, the “polymerase ribozyme fitness (log ratio)” value is no more than -4.2.

On to C10G G46U G143C U148C, for which the “polymerase ribozyme fitness (log ratio)” value is no more than -4.2.

Take A21U A40C: the “polymerase ribozyme fitness (log ratio)” value turned out to be 1.56.

With A22U C57G G58A C114G, the “polymerase ribozyme fitness (log ratio)” value was -2.5.

With G83U U139G, the “polymerase ribozyme fitness (log ratio)” value is -0.239.

On to A41C A91C A106U U148C, for which the “polymerase ribozyme fitness (log ratio)” value is no more than -4.2.

On to C43U U45A C63U G81A C95G U111A, for which the “polymerase ribozyme fitness (log ratio)” value is no more than -4.2.

G42A U78G C116A C125G: the “polymerase ribozyme fitness (log ratio)” value was no more than -4.2.

Regarding A41C C85G A113C, the “polymerase ribozyme fitness (log ratio)” value was -4.19.

The values above are taken from the RNAGym collection of RNA variant scans (doi:10.1073/pnas.2313332121).
